Assay results from the supplement of paper PMC10065799, “High-throughput profiling of sequence recognition by tyrosine kinases and SH2 domains using bacterial peptide display” (eLife, 2023).

Assays:
FGFR1 = FGFR1 (UniProt P11362); experiment: phosphorylation enrichment, bacterial display (enrichment ratio); higher = better substrate or ligand; peptides without Tyr show the background
c-Src = experiment: as above
Fes = Fes (UniProt P07332); experiment: as above
AncSZ = experiment: as above
FGFR3 = FGFR3 (UniProt P22607); experiment: as above
Fyn = Fyn (UniProt P06241); experiment: as above
Fer (mouse) = experiment: as above
EPHB1 = EPHB1 (UniProt P54762); experiment: as above
EPHB2 = EPHB2 (UniProt P29323); experiment: as above
c-Abl (mouse) = experiment: as above
Jak2 = Jak2 (UniProt O60674); experiment: as above
MERTK = MERTK (UniProt Q12866); experiment: as above
Hck = Hck (UniProt P08631); experiment: as above
c-Src SH2 = experiment: SH2 binding enrichment of the phosphorylated peptide, bacterial display (enrichment ratio); higher = better substrate or ligand; peptides without Tyr show the background
SHP2-C SH2 = experiment: as above
Grb2 SH2 = Grb2 SH2 (UniProt P62993); experiment: as above
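For SH2 binding enrichment of the phosphorylated peptide, bacterial display in this document: peptide library displayed on the E. coli surface as eCPX fusions, selected cells deep-sequenced, score is each peptide's frequency after selection divided by its frequency in the input.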
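For phosphorylation enrichment, bacterial display in this document: 11-residue human phosphosite peptides and single-mutation variants displayed on the E. coli surface, counted by deep sequencing, each peptide's frequency after selection divided by its frequency in the unselected input library; frequency after pTyr selection over input frequency; kinase dosed for 20-30% of maximal phosphorylation in three min.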

Chain of EPHB1 (P54762 whole entry, looked up): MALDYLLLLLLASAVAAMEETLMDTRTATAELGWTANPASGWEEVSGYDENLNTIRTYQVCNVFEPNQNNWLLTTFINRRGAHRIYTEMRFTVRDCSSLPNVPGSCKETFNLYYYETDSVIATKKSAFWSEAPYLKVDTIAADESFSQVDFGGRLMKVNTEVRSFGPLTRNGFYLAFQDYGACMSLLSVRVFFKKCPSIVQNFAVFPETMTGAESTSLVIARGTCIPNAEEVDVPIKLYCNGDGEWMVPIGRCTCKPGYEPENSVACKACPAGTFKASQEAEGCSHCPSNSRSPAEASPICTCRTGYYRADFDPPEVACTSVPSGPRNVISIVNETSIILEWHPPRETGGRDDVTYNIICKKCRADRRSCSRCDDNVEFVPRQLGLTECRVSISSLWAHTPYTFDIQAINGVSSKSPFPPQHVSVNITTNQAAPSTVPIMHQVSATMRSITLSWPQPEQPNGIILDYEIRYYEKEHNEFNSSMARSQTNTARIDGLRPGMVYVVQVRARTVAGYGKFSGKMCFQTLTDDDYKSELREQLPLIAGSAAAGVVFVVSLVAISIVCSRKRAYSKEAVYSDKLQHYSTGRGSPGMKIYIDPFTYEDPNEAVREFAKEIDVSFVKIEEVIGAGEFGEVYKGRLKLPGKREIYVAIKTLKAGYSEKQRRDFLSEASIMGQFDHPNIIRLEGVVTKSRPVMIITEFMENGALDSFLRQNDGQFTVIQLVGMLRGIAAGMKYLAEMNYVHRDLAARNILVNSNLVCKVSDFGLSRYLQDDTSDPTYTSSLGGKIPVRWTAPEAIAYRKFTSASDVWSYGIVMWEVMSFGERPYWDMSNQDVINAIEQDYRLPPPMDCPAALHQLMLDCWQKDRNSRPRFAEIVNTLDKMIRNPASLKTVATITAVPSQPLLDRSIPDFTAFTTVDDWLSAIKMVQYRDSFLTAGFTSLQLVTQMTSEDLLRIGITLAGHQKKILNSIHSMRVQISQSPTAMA
Chain of Hck (P08631 whole entry, looked up): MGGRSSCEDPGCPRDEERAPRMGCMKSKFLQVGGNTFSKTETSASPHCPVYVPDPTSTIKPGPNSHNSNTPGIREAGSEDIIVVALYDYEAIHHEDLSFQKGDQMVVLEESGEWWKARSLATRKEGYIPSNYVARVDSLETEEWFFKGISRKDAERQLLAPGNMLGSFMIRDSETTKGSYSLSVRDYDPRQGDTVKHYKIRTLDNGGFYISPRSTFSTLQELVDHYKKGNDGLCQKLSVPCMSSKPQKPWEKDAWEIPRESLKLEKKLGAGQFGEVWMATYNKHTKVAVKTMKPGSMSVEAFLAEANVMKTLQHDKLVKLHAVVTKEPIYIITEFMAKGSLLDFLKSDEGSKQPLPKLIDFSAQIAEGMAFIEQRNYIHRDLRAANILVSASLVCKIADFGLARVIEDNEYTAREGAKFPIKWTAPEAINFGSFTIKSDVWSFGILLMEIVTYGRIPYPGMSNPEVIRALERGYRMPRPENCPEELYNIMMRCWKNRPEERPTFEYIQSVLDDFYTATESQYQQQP
Chain of Fyn (P06241 whole entry, looked up): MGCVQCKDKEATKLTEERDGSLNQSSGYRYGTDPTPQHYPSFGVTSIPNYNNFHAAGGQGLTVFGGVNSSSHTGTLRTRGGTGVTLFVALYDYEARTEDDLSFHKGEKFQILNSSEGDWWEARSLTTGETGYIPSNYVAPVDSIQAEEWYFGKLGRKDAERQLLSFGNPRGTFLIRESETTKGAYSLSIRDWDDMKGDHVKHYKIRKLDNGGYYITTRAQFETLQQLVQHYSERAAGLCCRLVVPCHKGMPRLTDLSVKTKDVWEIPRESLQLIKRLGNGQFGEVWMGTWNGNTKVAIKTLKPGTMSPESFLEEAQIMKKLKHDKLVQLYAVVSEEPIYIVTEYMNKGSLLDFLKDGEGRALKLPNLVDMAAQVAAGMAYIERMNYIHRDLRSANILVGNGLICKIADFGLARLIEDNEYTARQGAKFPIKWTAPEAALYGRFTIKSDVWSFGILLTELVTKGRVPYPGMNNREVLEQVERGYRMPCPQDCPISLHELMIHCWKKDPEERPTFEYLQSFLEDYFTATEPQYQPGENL
Chain of Jak2 (O60674 whole entry, looked up): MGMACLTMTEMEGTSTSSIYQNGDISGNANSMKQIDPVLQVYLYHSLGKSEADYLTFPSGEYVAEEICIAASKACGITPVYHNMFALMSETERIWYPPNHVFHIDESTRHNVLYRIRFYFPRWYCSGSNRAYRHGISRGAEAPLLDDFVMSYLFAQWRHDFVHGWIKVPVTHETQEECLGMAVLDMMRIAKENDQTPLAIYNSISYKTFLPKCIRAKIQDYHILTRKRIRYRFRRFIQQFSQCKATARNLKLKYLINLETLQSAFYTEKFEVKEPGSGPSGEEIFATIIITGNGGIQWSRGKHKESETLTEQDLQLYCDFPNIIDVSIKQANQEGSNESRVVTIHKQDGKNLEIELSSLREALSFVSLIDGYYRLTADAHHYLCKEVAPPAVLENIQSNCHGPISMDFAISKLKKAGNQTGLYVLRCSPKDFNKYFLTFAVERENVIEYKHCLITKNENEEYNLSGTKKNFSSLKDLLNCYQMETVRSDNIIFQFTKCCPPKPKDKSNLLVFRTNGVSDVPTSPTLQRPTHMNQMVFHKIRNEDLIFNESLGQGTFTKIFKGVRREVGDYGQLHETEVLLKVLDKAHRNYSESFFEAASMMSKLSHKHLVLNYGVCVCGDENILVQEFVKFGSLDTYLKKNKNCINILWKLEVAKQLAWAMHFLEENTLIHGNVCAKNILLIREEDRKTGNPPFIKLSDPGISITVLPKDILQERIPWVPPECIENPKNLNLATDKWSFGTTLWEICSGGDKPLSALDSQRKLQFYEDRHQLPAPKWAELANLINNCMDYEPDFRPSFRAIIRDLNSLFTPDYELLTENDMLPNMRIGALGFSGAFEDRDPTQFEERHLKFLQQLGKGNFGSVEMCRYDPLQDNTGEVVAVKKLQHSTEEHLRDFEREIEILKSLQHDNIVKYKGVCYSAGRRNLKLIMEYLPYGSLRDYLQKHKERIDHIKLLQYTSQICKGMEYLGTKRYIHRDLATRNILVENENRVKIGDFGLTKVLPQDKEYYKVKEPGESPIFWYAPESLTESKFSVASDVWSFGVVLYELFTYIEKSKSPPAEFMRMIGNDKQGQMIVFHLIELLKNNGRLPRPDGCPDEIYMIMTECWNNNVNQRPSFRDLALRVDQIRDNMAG
Chain of FGFR1 (P11362 whole entry, looked up): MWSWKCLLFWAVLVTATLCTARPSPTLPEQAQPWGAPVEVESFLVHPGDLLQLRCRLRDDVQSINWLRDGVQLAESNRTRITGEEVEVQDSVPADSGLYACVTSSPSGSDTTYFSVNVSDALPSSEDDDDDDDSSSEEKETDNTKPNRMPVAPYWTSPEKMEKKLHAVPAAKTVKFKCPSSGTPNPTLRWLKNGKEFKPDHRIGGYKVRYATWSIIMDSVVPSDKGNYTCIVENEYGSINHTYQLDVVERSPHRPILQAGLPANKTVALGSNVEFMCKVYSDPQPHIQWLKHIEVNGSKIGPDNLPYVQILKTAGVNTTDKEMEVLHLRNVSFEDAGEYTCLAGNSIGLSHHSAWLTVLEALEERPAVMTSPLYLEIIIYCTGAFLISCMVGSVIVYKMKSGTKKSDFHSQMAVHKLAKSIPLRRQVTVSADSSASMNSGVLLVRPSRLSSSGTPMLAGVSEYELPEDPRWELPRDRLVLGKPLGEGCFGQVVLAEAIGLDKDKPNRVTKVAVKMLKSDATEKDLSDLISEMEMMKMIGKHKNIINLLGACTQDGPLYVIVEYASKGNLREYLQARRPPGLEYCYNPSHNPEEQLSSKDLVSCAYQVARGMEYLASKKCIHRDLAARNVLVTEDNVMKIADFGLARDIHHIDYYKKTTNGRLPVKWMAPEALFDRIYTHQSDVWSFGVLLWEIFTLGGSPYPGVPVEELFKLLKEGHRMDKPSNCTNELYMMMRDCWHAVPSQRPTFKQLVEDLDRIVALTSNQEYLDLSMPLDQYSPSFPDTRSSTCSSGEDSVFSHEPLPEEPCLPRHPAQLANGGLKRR
Chain of MERTK (Q12866 whole entry, looked up): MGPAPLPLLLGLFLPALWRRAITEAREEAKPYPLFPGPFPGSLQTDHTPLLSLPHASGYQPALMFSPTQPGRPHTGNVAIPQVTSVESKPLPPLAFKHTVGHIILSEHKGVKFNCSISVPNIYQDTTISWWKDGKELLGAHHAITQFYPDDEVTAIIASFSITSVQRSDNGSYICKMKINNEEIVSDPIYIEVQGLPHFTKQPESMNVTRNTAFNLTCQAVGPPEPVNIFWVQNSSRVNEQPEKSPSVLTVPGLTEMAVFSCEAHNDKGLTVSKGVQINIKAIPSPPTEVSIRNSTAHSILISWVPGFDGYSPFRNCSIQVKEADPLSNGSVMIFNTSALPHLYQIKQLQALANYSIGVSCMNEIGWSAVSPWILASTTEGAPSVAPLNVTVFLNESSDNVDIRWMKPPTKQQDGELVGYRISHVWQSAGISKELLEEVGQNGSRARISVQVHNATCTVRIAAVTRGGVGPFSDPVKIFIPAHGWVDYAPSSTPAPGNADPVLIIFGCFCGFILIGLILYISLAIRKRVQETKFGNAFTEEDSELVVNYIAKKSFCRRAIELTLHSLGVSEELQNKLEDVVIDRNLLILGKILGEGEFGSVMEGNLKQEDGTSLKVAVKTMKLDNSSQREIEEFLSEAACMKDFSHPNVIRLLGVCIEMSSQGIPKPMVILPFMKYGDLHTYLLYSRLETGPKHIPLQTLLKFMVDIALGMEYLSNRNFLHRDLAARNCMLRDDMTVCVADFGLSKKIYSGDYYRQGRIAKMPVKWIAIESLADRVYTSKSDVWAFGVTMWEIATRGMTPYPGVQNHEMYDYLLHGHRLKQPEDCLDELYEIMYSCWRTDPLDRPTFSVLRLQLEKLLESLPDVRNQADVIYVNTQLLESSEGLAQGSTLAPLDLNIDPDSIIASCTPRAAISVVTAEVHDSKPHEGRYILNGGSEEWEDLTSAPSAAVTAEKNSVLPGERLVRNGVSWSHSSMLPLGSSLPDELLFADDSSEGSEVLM

| Sequence | SH2 binding enrichment (c-Src SH2) | SH2 binding enrichment (SHP2-C SH2) | SH2 binding enrichment (Grb2 SH2) | phosphorylation enrichment (FGFR1) | phosphorylation enrichment (c-Src) | phosphorylation enrichment (Fes) | phosphorylation enrichment (AncSZ) | phosphorylation enrichment (FGFR3) | phosphorylation enrichment (Fyn) | phosphorylation enrichment (Fer (mouse)) | phosphorylation enrichment (EPHB1) | phosphorylation enrichment (EPHB2) | phosphorylation enrichment (c-Abl (mouse)) | phosphorylation enrichment (Jak2) | phosphorylation enrichment (MERTK) | phosphorylation enrichment (Hck) |
| --- | --- | --- | --- | --- | --- | --- | --- | --- | --- | --- | --- | --- | --- | --- | --- | --- |
| EEGESDVCSSD [DCX_Y125_Y125D] | 0.699 | 0.924 | 0.922 | 0.497 | 0.518 | 0.939 | 1.04 | 0.544 | 0.505 | 0.479 | 0.525 | 0.507 | 0.621 | 0.797 | 0.495 | 0.457 |
| EEGNPYYSSTR [MCCC2_Y520_A524T] | 1.22 | 1.15 | 0.82 | 0.672 | 1.44 | 1.1 | 1.1 | 0.74 | 0.921 | 0.722 | 0.595 | 0.531 | 0.67 | 0.693 | 0.428 | 1.25 |
| EFKKHYGYSLY [ANXA3_Y295] | 1.57 | 1.51 | 1.31 | 0.471 | 0.598 | 0.611 | 0.531 | 0.38 | 0.433 | 0.353 | 0.367 | 0.39 | 0.541 | 0.555 | 0.401 | 0.727 |
| EGNEQYEGYCV [GRIA3_Y451_R450Q] | 1.23 | 0.768 | 1.01 | 0.557 | 0.506 | 1.05 | 1.19 | 0.691 | 0.567 | 1.11 | 0.556 | 0.592 | 1.26 | 0.942 | 0.422 | 0.604 |
| EHIEFYELDKK [PMM2_Y145_R141H] | 0.559 | 0.632 | 0.688 | 0.487 | 1.11 | 1.1 | 1.01 | 0.571 | 0.566 | 0.456 | 0.4 | 0.492 | 0.588 | 0.746 | 0.514 | 0.445 |
| EILLSYLRTGF [TGM1_Y365_YF] | 0.64 | 0.974 | 1.26 | 0.433 | 0.394 | 0.943 | 1.05 | 0.619 | 0.401 | 0.411 | 0.418 | 0.967 | 0.492 | 0.981 | 0.387 | 0.41 |
| ELAKYYKLHHI [AK7_Y391_N389K] | 0.748 | 0.93 | 0.961 | 0.516 | 0.478 | 0.827 | 0.884 | 0.677 | 0.41 | 0.461 | 0.589 | 0.562 | 0.665 | 0.987 | 0.376 | 0.393 |
| ELTAKYLNFFQ [P3H4_Y181_YF] | 0.562 | 1.16 | 3.9 | 0.438 | 0.454 | 1.05 | 0.871 | 0.681 | 0.458 | 0.517 | 0.564 | 0.479 | 0.765 | 0.908 | 0.385 | 0.396 |
| EMTAEYTCTRK [ACAD9_Y325_A326T] | 0.41 | 0.638 | 0.632 | 0.654 | 0.477 | 0.974 | 1.14 | 0.636 | 0.624 | 0.513 | 0.674 | 0.607 | 0.636 | 0.757 | 0.465 | 0.699 |
| ENAGYYFQVSA | 0.691 | 0.884 | 0.953 | 0.94 | 0.444 | 1.37 | 1.17 | 1.06 | 0.527 | 0.595 | 0.578 | 0.566 | 0.603 | 1.43 | 0.602 | 0.448 |
| ENKGVYVLMSG [IVD_Y277] | 3.06 | 0.892 | 0.987 | 2.5 | 0.788 | 1.26 | 1.2 | 1.79 | 0.561 | 0.599 | 0.727 | 0.626 | 0.739 | 1.23 | 1.13 | 0.518 |
| ENKGVYVPMSG [IVD_Y277_L279P] | 3.41 | 0.445 | 0.734 | 0.48 | 0.449 | 0.559 | 0.599 | 0.531 | 0.367 | 0.405 | 0.411 | 0.383 | 0.503 | 0.517 | 0.451 | 0.519 |
| ETCLAYREKRI [TEKT1_Y118] | 0.611 | 0.742 | 0.948 | 0.61 | 0.423 | 0.956 | 1.07 | 0.558 | 0.536 | 0.371 | 0.466 | 0.519 | 0.503 | 0.693 | 0.508 | 0.49 |
| ETLLFYGCRRS [POR_Y564_YF] | 0.299 | 0.582 | 0.66 | 0.621 | 0.563 | 0.675 | 0.749 | 0.445 | 0.43 | 0.465 | 0.468 | 0.458 | 0.82 | 0.659 | 0.424 | 0.463 |
| ETLLYYGCRRS [POR_Y564] | 0.466 | 0.767 | 0.712 | 0.795 | 3.48 | 0.897 | 0.959 | 0.71 | 1.89 | 0.638 | 0.63 | 0.506 | 0.883 | 1.67 | 1.18 | 5.24 |
| ETSHNYHKFDS [MATR3_Y243] | 1.11 | 0.881 | 0.623 | 0.393 | 0.475 | 0.551 | 0.463 | 0.475 | 0.401 | 0.372 | 0.416 | 0.451 | 0.61 | 0.662 | 0.393 | 0.395 |

More lines, main results first:

| SH2 binding enrichment (c-Src SH2) | SH2 binding enrichment (SHP2-C SH2) | SH2 binding enrichment (Grb2 SH2) | Sequence | phosphorylation enrichment (FGFR1) | phosphorylation enrichment (c-Src) | phosphorylation enrichment (Fes) | phosphorylation enrichment (AncSZ) | phosphorylation enrichment (FGFR3) | phosphorylation enrichment (Fyn) | phosphorylation enrichment (Fer (mouse)) | phosphorylation enrichment (EPHB1) | phosphorylation enrichment (EPHB2) | phosphorylation enrichment (c-Abl (mouse)) | phosphorylation enrichment (Jak2) | phosphorylation enrichment (MERTK) | phosphorylation enrichment (Hck) |
| --- | --- | --- | --- | --- | --- | --- | --- | --- | --- | --- | --- | --- | --- | --- | --- | --- |
| 0.654 | 0.881 | 0.921 | EAVSIYQFFGQ [CBLC_Y402_H405Y_YF] | 3.15 | 6.58 | 1.36 | 1.74 | 2.67 | 7.8 | 8.72 | 11.2 | 5.73 | 6.44 | 1.34 | 9.29 | 7.12 |
| 0.616 | 1.09 | 1.02 | ECKLLYSRKEG [PTPN11_Y263] | 0.487 | 0.425 | 0.754 | 0.855 | 0.554 | 0.446 | 0.465 | 0.436 | 0.513 | 0.77 | 0.647 | 0.483 | 0.564 |
| 0.6 | 0.744 | 0.97 | EEGEEYGGGGG [TUBA1A_Y451] | 0.604 | 0.531 | 1.32 | 1.19 | 0.701 | 0.557 | 0.552 | 0.638 | 0.769 | 0.815 | 0.946 | 0.485 | 0.602 |
| 2.06 | 0.674 | 0.818 | EEGNPYYSSAR [MCCC2_Y520] | 0.468 | 1.99 | 0.845 | 1.09 | 0.647 | 0.793 | 0.528 | 0.499 | 0.473 | 0.679 | 0.848 | 0.422 | 1.18 |
| 0.521 | 1.02 | 1.28 | EEKKKYYDAKI [CASP5_Y103_T106A] | 0.529 | 0.396 | 0.764 | 0.626 | 0.518 | 0.371 | 0.447 | 0.467 | 0.432 | 0.565 | 0.848 | 0.429 | 0.411 |
| 0.459 | 0.779 | 0.7 | EFKDAYKFAAD [BRDT_Y335_YF] | 0.414 | 0.447 | 0.731 | 0.647 | 0.524 | 0.414 | 0.408 | 0.367 | 0.491 | 0.459 | 0.638 | 0.492 | 0.429 |
| 0.703 | 0.713 | 0.813 | EFKDAYTFAAD [BRDT_Y335_K336T_YF] | 0.508 | 1.36 | 0.959 | 1.09 | 0.606 | 0.63 | 0.477 | 0.452 | 0.519 | 0.647 | 0.835 | 0.456 | 0.57 |
| 0.403 | 0.709 | 0.828 | EGDGVYTLNNE [HP_Y125] | 0.595 | 4.26 | 1.16 | 1.26 | 0.822 | 6.33 | 0.658 | 0.602 | 0.633 | 0.817 | 0.934 | 0.509 | 3.07 |
| 0.522 | 0.436 | 0.762 | EKKKKYMLPLD [DNM2_Y563_E560K] | 0.5 | 0.496 | 0.951 | 0.594 | 0.506 | 0.604 | 0.502 | 0.52 | 0.469 | 0.691 | 0.567 | 0.504 | 0.452 |
| 0.493 | 0.703 | 0.997 | ELPEKYSQNIC [PKP2_Y626_Y631C] | 0.518 | 0.579 | 1.12 | 1.01 | 0.599 | 0.497 | 0.446 | 0.538 | 0.605 | 0.956 | 1.18 | 0.544 | 0.533 |
| 0.741 | 0.873 | 1.02 | ELTTCYRKKCC [CCBE1_Y70] | 0.485 | 0.379 | 0.785 | 0.817 | 0.507 | 0.444 | 0.393 | 0.441 | 0.48 | 0.559 | 0.652 | 0.413 | 0.396 |
| 0.513 | 0.609 | 0.79 | ETKKQYDSFTF [TMED3_Y85_YF] | 0.411 | 0.564 | 0.9 | 0.7 | 0.643 | 0.517 | 0.407 | 0.422 | 0.397 | 0.681 | 0.76 | 0.424 | 0.457 |
| 0.561 | 0.475 | 0.783 | EVASVYESFQP [MAVS_Y92_Q93E_YF] | 0.668 | 8.96 | 1.31 | 1.91 | 0.852 | 11.2 | 14 | 1.1 | 1.01 | 1.56 | 1.65 | 3.2 | 8.64 |
